Source: PMC4126800 (Nature, 2014)

Target: the molecule itself
Test: SAXS

B1: Human CD81 large extracellular loop (CD81 LEL, residues 112-202) (domain or fragment)
chain: GFVNKDQIAKDVKQFYDQALQQAVVDDDANNAKAVVKTFHETLDCCGSSTLTALTTSVLKNNLCPSGSNIISNLFKEDCHQKIDDLFSGKL
stoichiometry N: 2
